Positions of bridges follow the written chain, without caps; N, C: chain ends. No end group written: not given here.

Assay [1] has as its target T1, human C-reactive protein (human, UniProt P02741 19-224).
T1 construct: Biotinylated or labelled with Alexa Fluor 488; also called CRP; C-RP
T1 sequence (looked up): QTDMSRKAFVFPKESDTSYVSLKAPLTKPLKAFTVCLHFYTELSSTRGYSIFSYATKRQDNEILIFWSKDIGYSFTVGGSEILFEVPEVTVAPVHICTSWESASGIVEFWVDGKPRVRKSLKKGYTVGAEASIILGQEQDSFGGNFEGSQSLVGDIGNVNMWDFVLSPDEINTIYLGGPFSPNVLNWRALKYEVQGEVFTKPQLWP
Nature of the assay: equilibrium dissociation constant of a selected displayed peptide, whole-cell flow cytometry at various CRP concentrations. The procedure: The library was first depleted of streptavidin binding peptides by incubation with streptavidin coated microbeads, e.g., from Qiagen, Inc. (Valencia, Calif.). Then the library was incubated with biotinylated human C-reactive protein at 10 nM final concentration, and two rounds of magnetic selection were used to enrich CRP binding peptides. […] Equilibrium binding affinities were measured in the whole cell format, by determining cell fluorescence at various concentrations of target CRP. See e.g. FIG. 17.
To obtain equilibrium binding curves, cells were labeled over a range of concentrations, e.g., about 0.1 to about 200 nM, of fluorescently conjugated target proteins (streptavidin-phycoerythrin or CRP-Alexa Fluor® 488) and analyzed by flow cytometry, as above. The corresponding mean fluorescence versus concentration data were fit to a monovalent binding isotherm to obtain the apparent KD. Dissociation rates of streptavidin-binding clones were measured in the presence of about 1 to about 2 μM biotin. Cells were labeled with 50 nM streptavidin-phycoerythrin for 30 minutes at room temperature. The cells were then pelleted, resuspended in PBS with biotin, and immediately analyzed by flow cytometry. Fluorescence data were collected continuously for about five minutes. The dissociation rate constants were then determined as described previously. See Daugherty, P. S., et al. (1998) Protein Eng. […]

The target of assay [2] is T1, human C-reactive protein. Nature of the assay: apparent whole-cell KD, flow cytometry with CRP-Alexa Fluor 488. The procedure:
(§1) To obtain equilibrium binding curves, cells were labeled over a range of concentrations, e.g., about 0.1 to about 200 nM, of fluorescently conjugated target proteins (streptavidin-phycoerythrin or CRP-Alexa Fluor® 488) and analyzed by flow cytometry, as above. The corresponding mean fluorescence versus concentration data were fit to a monovalent binding isotherm to obtain the apparent KD. Dissociation rates of streptavidin-binding clones were measured in the presence of about 1 to about 2 μM biotin. Cells were labeled with 50 nM streptavidin-phycoerythrin for 30 minutes at room temperature. The cells were then pelleted, resuspended in PBS with biotin, and immediately analyzed by flow cytometry. Fluorescence data were collected continuously for about five minutes. The dissociation rate constants were then determined as described previously. See Daugherty, P. S., et al. (1998) Protein Eng. 11(9):825-832, which is herein incorporated by reference.

Assay [3] deals with T2, streptavidin (UniProt P22629 37-163, limits assumed).
T2 construct: Used as phycoerythrin conjugate or on coated beads; also called SA; streptavidin-phycoerythrin
Nature of the assay: whole-cell dissociation by flow cytometry, 1-2 uM biotin as competitor. As for the experimental part:
The apparent binding affinities of a subset of the selected peptides were determined using flow cytometric analysis. […] See Daugherty, P. S., et al. (1998) Protein Eng. 11(9):825-832, which is herein incorporated by reference. […] See Daugherty, P. S., et al. (1998) Protein Eng. 11(9):825-832; and Feldhaus, M. J., et al. (2003) Nat. Biotechnol. 21(2): 163-170, which are herein incorporated by reference. […] Apparent dissociation rate constants (kdiss) were determined for streptavidin, using about 1 to about 2 μM biotin as a competitor to prevent re-binding.
as §1

Assay [4] addresses T2, streptavidin. Nature of the assay: apparent whole-cell KD, flow cytometry with streptavidin-phycoerythrin. The procedure: as §1
Assay [5] has as its target T2, streptavidin. Nature of the assay: whole-cell dissociation by flow cytometry with biotin as competitor. As for the experimental part: (§2) To enable comparison of the phage and bacterial display peptides, a bacterial display clone was constructed with the insertion, […] (SEQ ID NO:65), and the KD and kdiss were measured in whole cell assays.
as §1

In assay [6] the target is T2, streptavidin. Nature of the assay: equilibrium dissociation constant of a selected displayed peptide, whole-cell flow cytometry. As for the experimental part: as §1
For assay [7], the target named is T2, streptavidin. Nature of the assay: apparent whole-cell KD, flow cytometry with streptavidin-phycoerythrin. The procedure:
as §2, §1
The source holds these as a separate data set.

The target of assay [8] is T2, streptavidin. Nature of the assay: whole-cell dissociation by flow cytometry (FIG. 10B), SA-7 against SA-1. The procedure: as §1
The target in assay [9] is T2, streptavidin. Nature of the assay: selection from the E. coli OmpA display library.

B1: CRP-1 (peptide)
peptide: EWACNDRGFNCQLQR
modifications: not fully specified (bridges); cysteine pairing not given here
notes: Insert only; said to be a cyclic peptide (two cysteines)
As for B1, the Kd with human C-reactive protein [1] was 1.2 nM; in the assay with human C-reactive protein [2] it was 1 nM.

B2: SA-1 (peptide)
peptide: RLEICQNVCYYLGTL
notes: Insert only; also called SA-1 pep
On to B2, for which, in the assay with streptavidin [3], the koff is approximately 0.001 s⁻¹. The Kd with streptavidin [4] turned out to be 10 nM.

B3: SA-3 (peptide)
peptide: TVLICMNICWTGETQ
notes: Insert only
As to B3, the koff with streptavidin [3] is approximately 0.001 s⁻¹; with streptavidin [5], 0.0007 s⁻¹. Moreover, the Kd with streptavidin [6] and with streptavidin [4] was 4 nM in each case.

B4: Clone HPQ (peptide)
peptide: SAECHPQGPPCIEGR
modifications: disulfide 4-11 (inferred)
notes: Insert only; also called cyclic HPQ clone
For B4, the “fold faster dissociation rate (kdiss) against clone SA-1” value in the assay with streptavidin [5] was 20 fold. Also, in the assay with streptavidin [7], the “fold higher apparent KD against clone SA-1” value was determined as 5 fold.

B5: SA-2 (peptide)
peptide: ICSYVMYTTCFLRVY
notes: Insert only
In the assay with streptavidin [3], B5 gave a koff of approximately 0.001 s⁻¹. Also, the Kd with streptavidin [4] came out at 8 nM.

B6: SA-7 (peptide)
peptide: NEWYCQNVCERMPHS
notes: Insert only
Molecule B6 gave a koff with streptavidin [3] of approximately 0.01 s⁻¹. Besides, the “fold difference of dissociation rate constant against SA-1” value with streptavidin [8] was determined as 4 fold.

B7: SEQ ID NO 243 (peptide)
peptide: QVKLHPMAPVVPSHW
With B7, the binding result with streptavidin [9] is on record as “binds”.

Source of the values: patent US20190264194A1 (published 2019).
